Paper PMC12599251, “Nitration-driven structural changes in Hsp90 linked to gain of pathological functions” (Biochemical Journal, 2025)

B1: Human Hsp90β with Y33 and Y56 replaced by phenylalanine (natural protein)
chain: not shown
notes: Human Hsp90β, UniProtKB P08238, gene HSP90AB1; Y33 and Y56 replaced by nitration-resistant phenylalanine; also called Hsp90^F33-56; Hsp90^F33-F56; source: E. coli BL21-AI, purified (Ni-NTA, Sephacryl-300 SEC)
B2: Human Hsp90β with Y33 and Y56 replaced by phenylalanine, treated with 0.5 mM peroxynitrite (natural protein)
chain: not shown
modifications: oxidised with 0.5 mM peroxynitrite; Y276, Y484 and Y596 are named as also prone to nitration
notes: Human Hsp90β, UniProtKB P08238, gene HSP90AB1; Y33 and Y56 replaced by phenylalanine, oxidised in vitro with peroxynitrite; Peroxynitrite gives a mixed product; also called Hsp90^F33-56 + ONOO^-; Hsp90^F33-F56 + ONOO^-; source: E. coli BL21-AI, purified (Ni-NTA, Sephacryl-300 SEC), then treated with 0.5 mM peroxynitrite

Target: the molecule itself
Test: AUC; sedimentation velocity, 42,000 rpm, 20°C, 11-15 uM protein, absorbance at 280 nm, continuous c(S) distribution (SEDFIT); peroxynitrite-treated samples dialyzed beforehand

Protein	stoichiometry N
B1	2
B2	2
